# Results taken from the supplement of paper PMC5998384.
# Key:
# [1] = test system: HeLa Kyoto; test: solubility in G1/S (NP-40 vs SDS abundance) (log2 ratio); higher = more soluble; details: cell cycle stage: G1/S
# [2] = test system: HeLa Kyoto; test: solubility change mitosis vs G1/S (difference of NP-40 vs SDS log2 ratios) (log2 ratio difference); higher = more soluble in mitosis
# 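For solubility change mitosis vs G1/S (difference of NP-40 vs SDS log2 ratios) in this document: synchronized HeLa Kyoto cells (double thymidine block for G1/S, nocodazole release for mitosis), protein amounts in NP-40 versus SDS lysates quantified by mass spectrometry, three biological replicates.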
# 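For solubility in G1/S (NP-40 vs SDS abundance) in this document: HeLa Kyoto cells arrested at G1/S by double thymidine block, proteins quantified by TMT10plex mass spectrometry in mild NP-40 versus SDS extracts, three biological replicates.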
Sequence,solubility in G1/S (log2) [1],solubility change mitosis (log2) [2]
MATFVSELEAAKKNLSEALGDNVKQYWANLKLWFKQKISKEEFDLEAHRLLTQDNVHSHNDFLLAILTRCQILVSTPDGAGSLPWPGGSAAKPGKPKGKKKLSSVRQKFDHRFQPQNPLSGAQQFVAKDPQDDDDLKLCSHTMMLPTRGQLEGRMIVTAYEHGLDNVTEEAVSAVVYAVENHLKDILTSVVSRRKAYRLRDGHFKYAFGSNVTPQPYLKNSVVAYNNLIESPPAFTAPCAGQNPASHPPPDDAEQQAALLLACSGDTLPASLPPVNMYDLFEALQVHREVIPTHTVYALNIERIITKLWHPNHEELQQDKVHRQRLAAKEGLLLC [TADA1],0.289,-0.0314
MNSVGEACTDMKREYDQCFNRWFAEKFLKGDSSGDPCTDLFKRYQQCVQKAIKEKEIPIEGLEFMGHGKEKPENSS [TRIAP1],-0.88,0.6
MTPVRMQHSLAGQTYAVPLIQPDLRREEAVQQMADALQYLQKVSGDIFSRISQQVEQSRSQVQAIGEKVSLAQAKIEKIKGSKKAIKVFSSAKYPAPERLQEYGSIFTGAQDPGLQRRPRHRIQSKHRPLDERALQEKLKDFPVCVSTKPEPEDDAEEGLGGLPSNISSVSSLLLFNTTENLYKKYVFLDPLAGAVTKTHVMLGAETEEKLFDAPLSISKREQLEQQVPENYFYVPDLGQVPEIDVPSYLPDLPGIANDLMYIADLGPGIAPSAPGTIPELPTFHTEVAEPLKVDLQDGVLTPPPPPPPPPPAPEVLASAPPLPPSTAAPVGQGARQDDSSSSASPSVQGAPREVVDPSGGRATLLESIRQAGGIGKAKLRSMKERKLEKKKQKEQEQVRATSQGGHLMSDLFNKLVMRRKGISGKGPGAGEGPGGAFARVSDSIPPLPPPQQPQAEEDEDDWES [WASH2P],0.453,0.0339
MAELYVKPGNKERGWNDPPQFSYGLQTQAGGPRRSLLTKRVAAPQDGSPRVPASETSPGPPPMGPPPPSSKAPRSPPVGSGPASGVEPTSFPVESEAVMEDVLRPLEQALEDCRGHTRKQVCDDISRRLALLQEQWAGGKLSIPVKKRMALLVQELSSHRWDAADDIHRSLMVDHVTEVSQWMVGVKRLIAEKRSLFSEEAANEEKSAATAEKNHTIPGFQQAS [SRA1],0.0612,0.9
MNMIWRNSISCLRLGKVPHRYQSGYHPVAPLGSRILTDPAKVFEHNMWDHMQWSKEEEAAARKKVKENSAVRVLLEEQVKYEREASKYWDTFYKIHKNKFFKDRNWLLREFPEILPVDQKPEEKARESSWDHVKTSATNRFSRMHCPTVPDEKNHYEKSSGSSEGQSKTESDFSNLDSEKHKKGPMETGLFPGSNATFRILEVGCGAGNSVFPILNTLENSPESFLYCCDFASGAVELVKSHSSYRATQCFAFVHDVCDDGLPYPFPDGILDVILLVFVLSSIHPDRTLFI [METTL8],-0.312,0.054
MDILKSEILRKRQLVEDRNLLVENKKYFKRSELAKKEEEAYFERCGYKIQPKEEDQKPLTSSNPVLELELAEEKLPMTLSRQEVIRRLRERGEPIRLFGETDYDAFQRLRKIEILTPEVNKGLRNDLKAALDKIDQQYLNEIVGGQEPGEEDTQNDLKVHEENTTIEELEALGESLGKGDDHKDMDIITKFLKFLLGVWAKELNAREDYVKRSVQGKLNSATQKQTESYLRPLFRKLRKRNLPADIKESITDIIKFMLQREYVKANDAYLQMAIGNAPWPIGVTMVGIHARTGREKIFSKHVAHVLNDETQRKYIQGLKRLMTICQKHFPTDPSKCVEYNAL [PRPF18],0.178,0.09
MEEVTTCSFNSPLFRQEDDRGITYRIPALLYIPPTHTFLAFAEKRSTRRDEDALHLVLRRGLRIGQLVQWGPLKPLMEATLPGHRTMNPCPVWEQKSGCVFLFFICVRGHVTERQQIVSGRNAARLCFIYSQDAGCSWSEVRDLTEEVIGSELKHWATFAVGPGHGIQLQSGRLVIPAYTYYIPSWFFCFQLPCKTRPHSLMIYSDDLGVTWHHGRLIRPMVTVECEVAEVTGRAGHPVLYCSARTPNRCRAEALSTDHGEGFQRLALSRQLCEPPHGCQGSVVSFRPLEIPHRCQDSSSKDAPTIQQSSPGSSLRLEEEAGTPSESWLLYSHPTSRKQRVDLGIYLNQTPLEAACWSRPWILHCGPCGYSDLAALEEEGLFGCLFECGTKQECEQIAFRLFTHREILSHLQGDCTSPGRNPSQFKSN [NEU3],-0.0555,-0.0358
